Experimental data as given in the supplement of paper PMC10065799, “High-throughput profiling of sequence recognition by tyrosine kinases and SH2 domains using bacterial peptide display” (eLife, 2023).

Molecular target: c-Src SH2
Test: SH2 binding enrichment of the phosphorylated peptide, bacterial display (enrichment ratio); higher = better substrate or ligand; peptides without Tyr show the background
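Throughout, for SH2 binding enrichment of the phosphorylated peptide, bacterial display: peptide library displayed on the E. coli surface as eCPX fusions, selected cells deep-sequenced, score is each peptide's frequency after selection divided by its frequency in the input.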
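Throughout, for phosphorylation enrichment, bacterial display: 11-residue human phosphosite peptides and single-mutation variants displayed on the E. coli surface, counted by deep sequencing, each peptide's frequency after selection divided by its frequency in the unselected input library; frequency after pTyr selection over input frequency; kinase dosed for 20-30% of maximal phosphorylation in three min.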

Sequence | SH2 binding enrichment
AHAGEYGAEAL [HBA1_Y25] | 0.396
ENELTYFCFKK [CD59_Y86_C89Y_YF] | 0.414
MSLDQYSPSFP [FGFR1_Y776_P772S] | 0.45
QQTYTYDSGIH [JUP_Y22] | 0.744
KNEVLYDGENH [ARFGEF1_Y314] | 0.665
WVYNHYRWFIW [BRCA2_Y2624_I2627F] | 0.666
EQWRAYLEGTC [HLA-C_Y183_L180W] | 0.466
DSRRDYVSQFE [APOA1_Y53_G50R] | 0.531
NVPILYTASQA [CTNNA1_Y222] | 0.435
FVHDNYVIQRT [CPS1_Y1450_R1453Q] | 0.624
SKQGKYLNWDA [ATM_Y54] | 0.653
GKFHMYVAVWT [F13A1_Y161_R159H] | 0.535
NKKHHYRELPV [ERN2_Y860] | 1.41
GGKFSYLKVGH [GRM3_Y480_YF] | 0.401
RIVEIYTRRLQ [GCH1_Y175_S176T] | 0.325
KPGLKYVTYGN [GALNTL5_Y404] | 1.11
KKCTTYIDCDL [ASPA_Y64_R63T] | 0.703

Continued, values first:

SH2 binding enrichment | Sequence
6.14 | QNTGYYYDLYG [PTPN11_Y62_D61Y]
0.533 | SGPRRYTIAAL [TTR_Y125]
0.722 | CSEEMYCLMLQ [RET_Y981_R982C]
0.595 | KNKKDYFDMFE [SLC26A3_Y526_YF]
2.04 | YIILIYAMKKK [SLCO1B1_Y645]
0.545 | VDSTEYEVASQ [SLC7A7_Y7]
0.395 | LARDMHDKEYY [MET_Y1230_Y1230H]
1.72 | CTTIHYNFMCI [TP53_Y234_N239I_YF]
0.504 | EFTPLYPMLFG [SCLY_Y280]
0.453 | VGGRIYTDDGL [PKLR_Y218_I219T]
0.557 | FKEDPYLVVNP [MCM6_Y810_E806K_YF]
0.68 | SPDMLYQYLKQ [RPAP3_Y567]
0.533 | LTSKPYAFTAR [NDUFS1_Y236]
0.452 | GESKDYALHVG [SVIL_Y185]
0.504 | NPQKPYFIRLF [WAS_Y83_S82P_YF]
0.674 | GFILMYDITNE [RAB3C_Y110]

Molecular target: SHP2-C SH2
Test: as above

Sequence | SH2 binding enrichment
AHAGEYGAEAL [HBA1_Y25] | 0.676
ENELTYFCFKK [CD59_Y86_C89Y_YF] | 0.6
MSLDQYSPSFP [FGFR1_Y776_P772S] | 0.646
QQTYTYDSGIH [JUP_Y22] | 0.535
KNEVLYDGENH [ARFGEF1_Y314] | 0.687
WVYNHYRWFIW [BRCA2_Y2624_I2627F] | 0.733
EQWRAYLEGTC [HLA-C_Y183_L180W] | 0.718
DSRRDYVSQFE [APOA1_Y53_G50R] | 0.524
NVPILYTASQA [CTNNA1_Y222] | 0.628
FVHDNYVIQRT [CPS1_Y1450_R1453Q] | 0.596
SKQGKYLNWDA [ATM_Y54] | 0.82
GKFHMYVAVWT [F13A1_Y161_R159H] | 0.825
NKKHHYRELPV [ERN2_Y860] | 1.48
GGKFSYLKVGH [GRM3_Y480_YF] | 0.525
RIVEIYTRRLQ [GCH1_Y175_S176T] | 0.58
KPGLKYVTYGN [GALNTL5_Y404] | 2.11
KKCTTYIDCDL [ASPA_Y64_R63T] | 0.826

Other lines, results leading:

SH2 binding enrichment | Sequence
2.18 | QNTGYYYDLYG [PTPN11_Y62_D61Y]
0.572 | SGPRRYTIAAL [TTR_Y125]
0.949 | CSEEMYCLMLQ [RET_Y981_R982C]
1.01 | KNKKDYFDMFE [SLC26A3_Y526_YF]
2.86 | YIILIYAMKKK [SLCO1B1_Y645]
0.932 | VDSTEYEVASQ [SLC7A7_Y7]
0.962 | LARDMHDKEYY [MET_Y1230_Y1230H]
1.57 | CTTIHYNFMCI [TP53_Y234_N239I_YF]
4.07 | EFTPLYPMLFG [SCLY_Y280]
0.887 | VGGRIYTDDGL [PKLR_Y218_I219T]
0.753 | FKEDPYLVVNP [MCM6_Y810_E806K_YF]
0.659 | SPDMLYQYLKQ [RPAP3_Y567]
0.767 | LTSKPYAFTAR [NDUFS1_Y236]
0.612 | GESKDYALHVG [SVIL_Y185]
0.924 | NPQKPYFIRLF [WAS_Y83_S82P_YF]
0.962 | GFILMYDITNE [RAB3C_Y110]

Molecular target: Grb2 SH2 (UniProt P62993)
Test: as above

Sequence | SH2 binding enrichment
AHAGEYGAEAL [HBA1_Y25] | 0.683
ENELTYFCFKK [CD59_Y86_C89Y_YF] | 0.746
MSLDQYSPSFP [FGFR1_Y776_P772S] | 0.825
QQTYTYDSGIH [JUP_Y22] | 1
KNEVLYDGENH [ARFGEF1_Y314] | 0.978
WVYNHYRWFIW [BRCA2_Y2624_I2627F] | 0.966
EQWRAYLEGTC [HLA-C_Y183_L180W] | 0.749
DSRRDYVSQFE [APOA1_Y53_G50R] | 0.803
NVPILYTASQA [CTNNA1_Y222] | 0.762
FVHDNYVIQRT [CPS1_Y1450_R1453Q] | 0.971
SKQGKYLNWDA [ATM_Y54] | 6.01
GKFHMYVAVWT [F13A1_Y161_R159H] | 1.03
NKKHHYRELPV [ERN2_Y860] | 1.62
GGKFSYLKVGH [GRM3_Y480_YF] | 0.901
RIVEIYTRRLQ [GCH1_Y175_S176T] | 0.756
KPGLKYVTYGN [GALNTL5_Y404] | 1.34
KKCTTYIDCDL [ASPA_Y64_R63T] | 0.883

Now from value to sequence:

SH2 binding enrichment | Sequence
1.54 | QNTGYYYDLYG [PTPN11_Y62_D61Y]
0.867 | SGPRRYTIAAL [TTR_Y125]
0.943 | CSEEMYCLMLQ [RET_Y981_R982C]
0.979 | KNKKDYFDMFE [SLC26A3_Y526_YF]
2.34 | YIILIYAMKKK [SLCO1B1_Y645]
0.946 | VDSTEYEVASQ [SLC7A7_Y7]
0.625 | LARDMHDKEYY [MET_Y1230_Y1230H]
1.71 | CTTIHYNFMCI [TP53_Y234_N239I_YF]
0.993 | EFTPLYPMLFG [SCLY_Y280]
0.653 | VGGRIYTDDGL [PKLR_Y218_I219T]
0.762 | FKEDPYLVVNP [MCM6_Y810_E806K_YF]
1.21 | SPDMLYQYLKQ [RPAP3_Y567]
0.684 | LTSKPYAFTAR [NDUFS1_Y236]
0.815 | GESKDYALHVG [SVIL_Y185]
0.919 | NPQKPYFIRLF [WAS_Y83_S82P_YF]
1.05 | GFILMYDITNE [RAB3C_Y110]

Molecular target: Hck (UniProt P08631)
Test: phosphorylation enrichment, bacterial display (enrichment ratio); higher = better substrate or ligand; peptides without Tyr show the background

Chain of Hck (P08631 whole entry, looked up): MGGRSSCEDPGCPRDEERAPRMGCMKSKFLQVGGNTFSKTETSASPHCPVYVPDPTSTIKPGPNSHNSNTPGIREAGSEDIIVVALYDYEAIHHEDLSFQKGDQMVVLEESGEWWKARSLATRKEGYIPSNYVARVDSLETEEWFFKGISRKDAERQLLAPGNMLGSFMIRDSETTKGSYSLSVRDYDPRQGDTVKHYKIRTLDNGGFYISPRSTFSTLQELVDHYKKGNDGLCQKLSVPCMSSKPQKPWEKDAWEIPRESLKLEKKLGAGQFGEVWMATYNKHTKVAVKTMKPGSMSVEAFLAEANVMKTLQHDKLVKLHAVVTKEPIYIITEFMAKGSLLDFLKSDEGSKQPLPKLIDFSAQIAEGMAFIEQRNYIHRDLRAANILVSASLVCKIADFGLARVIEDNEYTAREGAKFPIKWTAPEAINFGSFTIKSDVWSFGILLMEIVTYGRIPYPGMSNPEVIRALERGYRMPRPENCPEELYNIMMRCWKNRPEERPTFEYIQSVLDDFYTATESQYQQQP

Sequence | phosphorylation enrichment
AHAGEYGAEAL [HBA1_Y25] | 0.464
ENELTYFCFKK [CD59_Y86_C89Y_YF] | 3.63
QNTGYYYDLYG [PTPN11_Y62_D61Y] | 9.49
SGPRRYTIAAL [TTR_Y125] | 0.375
CSEEMYCLMLQ [RET_Y981_R982C] | 1.31
MSLDQYSPSFP [FGFR1_Y776_P772S] | 0.481
QQTYTYDSGIH [JUP_Y22] | 1.61
KNKKDYFDMFE [SLC26A3_Y526_YF] | 0.444
KNEVLYDGENH [ARFGEF1_Y314] | 0.436
WVYNHYRWFIW [BRCA2_Y2624_I2627F] | 0.403
EQWRAYLEGTC [HLA-C_Y183_L180W] | 0.507
DSRRDYVSQFE [APOA1_Y53_G50R] | 0.478
YIILIYAMKKK [SLCO1B1_Y645] | 0.53
VDSTEYEVASQ [SLC7A7_Y7] | 0.549
NVPILYTASQA [CTNNA1_Y222] | 0.444
LARDMHDKEYY [MET_Y1230_Y1230H] | 0.385
CTTIHYNFMCI [TP53_Y234_N239I_YF] | 0.529

Sequence | phosphorylation enrichment
FVHDNYVIQRT [CPS1_Y1450_R1453Q] | 0.436
EFTPLYPMLFG [SCLY_Y280] | 0.515
SKQGKYLNWDA [ATM_Y54] | 0.427
GKFHMYVAVWT [F13A1_Y161_R159H] | 0.498
NKKHHYRELPV [ERN2_Y860] | 1.01
VGGRIYTDDGL [PKLR_Y218_I219T] | 0.426
GGKFSYLKVGH [GRM3_Y480_YF] | 0.371
RIVEIYTRRLQ [GCH1_Y175_S176T] | 0.613
FKEDPYLVVNP [MCM6_Y810_E806K_YF] | 0.718
SPDMLYQYLKQ [RPAP3_Y567] | 8.16
LTSKPYAFTAR [NDUFS1_Y236] | 0.58
KPGLKYVTYGN [GALNTL5_Y404] | 0.484
GESKDYALHVG [SVIL_Y185] | 0.461
NPQKPYFIRLF [WAS_Y83_S82P_YF] | 0.479
GFILMYDITNE [RAB3C_Y110] | 0.633
KKCTTYIDCDL [ASPA_Y64_R63T] | 0.491
